Results reported in patent US20210292393A1 (published 2021).

Tests used:
[1] = molecular target: spike protein of SARS-CoV-2 clinical isolate USA/WA/1/2020 (live virus) (SARS-CoV-2, UniProt P0DTC2 14-1273); test: cell-based or functional assay
[2] = molecular target: SARS-CoV-2 full-length spike protein on pseudotyped lentivirus (SARS-CoV-2, UniProt P0DTC2 14-1273); test: cell-based or functional assay
[3] = molecular target: SARS-CoV-2 spike protein (wild type), spike protein trimer (SARS-CoV-2, UniProt P0DTC2 14-1208)
[4] = molecular target: SARS-CoV spike protein (full length, trimeric) (SARS-CoV, UniProt P59594 14-1190)
[5] = molecular target: SARS-CoV spike protein (full-length trimeric, conjugated to optically encoded beads) (SARS-CoV, UniProt P59594 14-1190)

B1: anti-SARS-CoV-2 antibody 966 (antibody, V domains shown)
VH: QVQLVESGGGVVQPGRSLRLSCAASEFTFSSYGMHWVRQAPGKGLEWVAVISHDGSNEYYADSVKGRFTISRDNSKNTLYLQMNSLRAEDTAVYYCAKWRGPHRGYYDRSGYYLGSSRDDYWGQGTLVTVSS
VL: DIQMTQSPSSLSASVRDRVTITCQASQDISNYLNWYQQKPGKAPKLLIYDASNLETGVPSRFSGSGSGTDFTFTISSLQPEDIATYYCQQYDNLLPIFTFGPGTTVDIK
Live Virus Neutralization IC50 [1]: > 10 µg/mL
Pseudo-neutralization IC50 [2]: 0.021 µg/mL
Kd [3]: 1.8 nM

B2: anti-SARS-CoV-2 antibody 989 (antibody, V domains shown)
VH: QVQLQESGPGLVKPSQTLSLTCTVSGGSISSGSYYWSWIRQPAGKGLEWIGRIYTSGSTNYNPSLKSRVTMSVDTSKNHFSLKLRSVTAADTAVYYCARGIAVAGDDDYYYYYGLDVWGQGTTVTVSS
VL: SYELTQPPSVSVSPGQTARITCSGDALPKQYAYWYQQKPGQAPVMVINKDSERPSGIPERFSGSSSGTTVTLTISGVQAEDEADYYCHSADSSGTYWVFGGGTKLTVL
Live Virus Neutralization IC50 [1]: 1.5 µg/mL
Pseudo-neutralization IC50 [2]: 0.19 µg/mL
Kd [3]: 0.104 nM

B3: anti-SARS-CoV-2 antibody 1000 (antibody, V domains shown)
VH: EVQLVESGGGLVQPGRSLRLSCAASGFTFDDYAMHWVRQAPGEGLEWVSGISWNSGSIGYADSVKGRFTISRDNAKNSLYLQMNSLRAEDTALYYCAKDTRFSFGTIAAAVSGYGMDVWGQGTTVTVSS
VL: QSALTQPASVSGSPGQSITISCTGTSSDVGIFNLVSWYQQHPGKAPKLMIYEVTKRPSGVSNRFSGSKSGNTASLTISGLQAEDEADYYCCSYAGSYVFGTGTKVTVL
Live Virus Neutralization IC50 [1]: 0.013 µg/mL
Pseudo-neutralization IC50 [2]: 0.006 µg/mL
Kd [3]: 0.092 nM

B4: anti-SARS-CoV-2 antibody 1012 (antibody, V domains shown)
VH: EVQVVESGGGLVQPGGSRRLSCTASGFTLRNYWMSWVRQAPGKGLEWVANIKQDGSEKYYVDSVKGRFTISRDNAKNSLYLQMDSLRAEDTAVYYCARGGRYCPGGSCPRWGRGTLVTVSS
VL: DIQMTQSPSSLSASVGDRVTITCQASQDISNFLNWYQLKPGEAPTLLIFDASKLETGVPSRFSGTGFGTDFTFTISSLQPEDTATYYCQQYDDLTSITLGQGTRLEIK
Live Virus Neutralization IC50 [1]: 0.028 µg/mL
Pseudo-neutralization IC50 [2]: 0.006 µg/mL
Kd [3]: 0.139 nM

B5: anti-SARS-CoV-2 antibody 1015 (antibody, V domains shown)
VH: EVQLVESGGGLVQPGGSLRLSCAASGFTFSSYWMHWVRQAPGKGLVWVSHINSDGSSTSYADSVKGRFTISRDNAKNTLYLQMNSLRAEDTAVYYCARGLRYFDLDVWGQGTTVTVSS
VL: QSVLTQPPSVSEAPRQRVTISCSGSSSNIGNNAVNWYQQLPGKAPKLLIFYDDLLPSGVSDRFSGSKSGTSASLAISGLQSEDEADYYCAAWDDSLNGGVFGGGTKLTVL
Live Virus Neutralization IC50 [1]: 0.032 µg/mL
Pseudo-neutralization IC50 [2]: 0.011 µg/mL
Kd [3]: 0.096 nM

B6: anti-SARS-CoV-2 antibody 1027 (antibody, V domains shown)
VH: EVQLVESGGGLVQPGGSLRLSCAASGFTVSSNYMSWVRQAPGKGLEWVSIIYSGGSTFYADSVKGRFTISRDSSKNTLYLQMSSLRAEDTAVYYCARDLDYYGMDVWGQGTTVTVSS
VL: DIQLTQSPSFLSAPVGDRVTITCRASQGISSYLAWYQQKPGKAPKLLIYGASTLQSGVPSRFSGSGSGTEFTLTISSLQPEDFATYYCQQLNSYQRFTFGPGTKVEIK
Live Virus Neutralization IC50 [1]: 0.005 µg/mL
Pseudo-neutralization IC50 [2]: 0.01 µg/mL
Kd [3]: 0.205 nM

B7: anti-SARS-CoV-2 antibody 1037 (antibody, V domains shown)
VH: QITLKESGPTLVKPTQTLTLTCTFSGFSLSTSGVGVGWIRQPPGKALEWLALIYWDDDKRYSPSLKSRLTITKDTSKNQVVLTMTNMDPVDTATYYCAHHTITRINDYWGQGTLVTVSS
VL: QSALTQPASVSGSPGQSITISCTATSSDVGAYNYVSWYQQHPGKAPKLMIYDVSKRPSGVSNRFSGSKSGNTASLTISGLQAEDEADYYCSSYTSSSTVFGGGTKLTVL
Live Virus Neutralization IC50 [1]: 0.009 µg/mL
Pseudo-neutralization IC50 [2]: 0.025 µg/mL
Kd [3]: 0.126 nM

B8: anti-SARS-CoV-2 antibody 1075 (antibody, V domains shown)
VH: QVQLVQSGAEVKKPGASVKVSCKVSGYTLIELSMHWVRQAPGKGLEWMGGFDPEDGETIYAQKFQGRVTMTEDTSTDTAYMELSSLRSEDTAVYYCATEWAYYGSGSYLGYWGQGTLVTVSS
VL: EIVMTQSPATLSVSPGERATLSCRASQSVSSNLAWFQQKPGQAPRLLIYGASTRVTVIPARFSGSGSGTEFTLTISSLQSEDFAVYYCQQYNNWPRTFGQGTKVEIK
Live Virus Neutralization IC50 [1]: 0.011 µg/mL
Pseudo-neutralization IC50 [2]: 0.039 µg/mL
Kd [3]: 0.093 nM

B9: antibody 485 (antibody, V domains shown)
VH: QVQLQESGPGLVKPSGTLSLTCAVSGASISSSNWWSWVRQPPGKGLEWIGEIYHSGSTNYNPSLKSRVTISVDKSKNQFSLKLSSVTAADTAVYYCARRSYYGSGSYYPFDYWGQGTLVTVSS
VL: QSALTQPASVSGSPGQSITISCTGTSSDVGSYNLVSWYQQHPGKAPKLMIYEGRKRPSGVSNRFSGSKSGNTASLTISGLQAEDEADYYCCSYAGSSTYVFGTGTKVTVL
fold over isotype control (median fluorescence) [4]: 1.12 fold over isotype

B10: antibody 544 (antibody, V domains shown)
VH: QVQLQQWGAGLLKPSETLSLTCAVYGGSFSGYYWSWIRQPPGKGLEWIGEINHSGSTNYNPSLKSRVTISVDTSKNQFSLKLSSVTAADTAVYYCARGFKWFGELLFGAQGTLVTVSS
VL: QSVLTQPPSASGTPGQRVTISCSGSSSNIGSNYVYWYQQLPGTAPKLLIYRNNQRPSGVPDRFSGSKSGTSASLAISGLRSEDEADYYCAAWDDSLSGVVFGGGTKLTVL
fold over isotype control (median fluorescence intensity) [5]: 1.05 fold over isotype

B11: antibody 545 (antibody, V domains shown)
VH: QVQLVQSGSELKKPGASVKVSCKASGYTFTSYAMNWVRQAPGQGLEWMGWINTNTGNPTYAQGFTGRFVFSLDTSVSTAYLQISVLKAEDTGVYYCARDHELPNSSSWFGHFEYWGQGTLVTVSS
VL: SYELTQPPSVSVSPGQTARITCSGDALPKQYAYWYQQKAGQAPVLVIYKDSERRSGIPERFSGSSSGTTVTLTISGVQAEDEADYYCQSADSSGTSVVFGGGTKLTVL
fold over isotype control (median fluorescence intensity) [5]: 1.13 fold over isotype

B12: antibody 546 (antibody, V domains shown)
VH: QVQLVESGGGVVQPGRSLRLSCAASGFTFSSYGMHWVRQAPGKGLEWVAVIWYDGSNKYYADSVKGRFTISRDNSKNTLYLQMNSLRAEDTAVYYCARNCGGDCVAGDGFDYWGQGTLVTVSS
VL: DIQMTQSPSSLSASVGDRVTITCRASQSISSYLNWYQQKPGKAPNLLIYAASSLQSGVPSRFSGSGSGTDFTLTISSLQPEDFATYYCQQSYSALTWTFGQGTKVEIK
fold over isotype control (median fluorescence intensity) [5]: 1.18 fold over isotype

B13: antibody 548 (antibody, V domains shown)
VH: QVQLVESGGGVVQPGRSLRLSCAASGFTFSSYAMHWVRQAPGKGLEWVAVISYDGSNKYYADSVKGRFTISRDNSKNTLYLQMNNLRAEDTAVYYCAKSGSGSYLSAFDIWGQGTMVTVSS
VL: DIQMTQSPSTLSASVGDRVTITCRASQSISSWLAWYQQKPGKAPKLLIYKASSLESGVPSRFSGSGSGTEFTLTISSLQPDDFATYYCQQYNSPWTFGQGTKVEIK
fold over isotype control (median fluorescence intensity) [5]: 18.1 fold over isotype

B14: antibody 556 (antibody, V domains shown)
VH: QVQLVESGGGVVQPGRSLRLSCAASGFTFSSYAMHWVRQAPGKGLEWVAVISYDGSDKYYADSVKGRVTISRDNSKNTLYLQMNSLRVEDTAVFYCAKDDCSGGVCFPDYWGQGTLVTVSS
VL: QSALTQPASVSGSPGQSITISCTGTSSDVGGYNYVSWYQQHPGKAPKLMIYEVSIRPSGVSNRFSGSKSGNTASLTISGLQAEDEAAYYCSSYTSSSTLVFGGGTKLTVL
fold over isotype control (median fluorescence intensity) [5]: 1.09 fold over isotype

B15: antibody 560 (antibody, V domains shown)
VH: EVQLVESGGGLVQPGGSLRLSCAASGFTISSNYMSWVRQAPGKGLEWVSVIYSGGSTYYADSVKGRFTISRDNSKNTLYLQMNSLRAEDTAVYYCAREEGEWEKDYYGMDVWGQGTTVTVSS
VL: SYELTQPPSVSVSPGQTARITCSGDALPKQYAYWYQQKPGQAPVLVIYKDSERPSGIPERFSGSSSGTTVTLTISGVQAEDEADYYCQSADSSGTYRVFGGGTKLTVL
fold over isotype control (median fluorescence intensity) [5]: 1.14 fold over isotype

B16: antibody 563 (antibody, V domains shown)
VH: QVQLVESGGGVVQPGRSLRLSCAASGFTFSSYAMHWVRQAPGKGLEWVAVISDDGSNKYYADSVKGRFTISRDNSKNTLYLQMNSLRAEDTAVYYCARDIVATIRRLFDYWGQGTLVTVSS
VL: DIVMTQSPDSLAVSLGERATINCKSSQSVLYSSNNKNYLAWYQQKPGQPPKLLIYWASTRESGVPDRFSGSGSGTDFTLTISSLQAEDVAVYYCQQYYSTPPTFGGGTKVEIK
fold over isotype control (median fluorescence intensity) [5]: 35.4 fold over isotype

B17: antibody 564 (antibody, V domains shown)
VH: QVHLVESGGGVVQPGKSLRLSCAASGFIFSSFGMHWVRQPPGKGLEWLAVVSYDGSVTKYSDSFEGRFTISRDNSKNTLYLQMDSLRPEDTAVYYCAKGQGTNLLHYWGQGILVTVSS
VL: DVVLSQSPLSLPVTLGQPASISCRSSESLVYTDGDTYLHWFHQRPGQSPRRLIFKVSHRESGVPDRISGSGSGTDFTLKISRVEAEDVGVYYCMQGTHWPFTFGPGTKVDIK
fold over isotype control (median fluorescence intensity) [5]: 37.3 fold over isotype

B18: antibody 566 (antibody, V domains shown)
VH: QVQLVQSGAEVKKPGASVKVSCKASGYTFTSYAMHWVRQAPGQRLEWMGWINAGNGNTKYSQKFQGRVTITRDTSASTAYMELSSLRSEDTAVYYCARDLGVAVTLHPADFDYWGQGTLVTVSS
VL: QSVLTQPPSVSGAPGQRVTISCTGSSSNIGAGYDVHWYQQLPGTAPKLLIYDNSNRPSGVPDRFSGSKSGTSASLAITGLQAEDEADYYCQSYDSSLSAVVFGGGTKLTVL
fold over isotype control (median fluorescence intensity) [5]: 0.97 fold over isotype

B19: antibody 569 (antibody, V domains shown)
VH: QVQLVESGGGVVQPGRSLRLSCAASGFTFSSYAMHWVRQAPGKGLEWVAVISYDGSNKYYADSVKGRFTISRDNSKNTLYLQMNSLRAEDTAVYYCARASSGGYQGPFDPWGQGTLVTVSS
VL: EIVLTQSPATLSLSPGERATLSCRASQSVSSYLAWYQQKPGQAPRLLIYDASNRATGIPARFSGSGSGTDFTLTISSLEPEDFAVYYCQQRSSPFGPGTKVDIK
fold over isotype control (median fluorescence intensity) [5]: 3.31 fold over isotype

B20: antibody 571 (antibody, V domains shown)
VH: EVQLVESGGGLVQPGGSLRLSCAASGFTFSTYWMTWVRQAPGKGLEWVANIKHDGSGKYHVDSVKGRFTISRDNAKNSLYLQMNSLRAEDTAVYYCTRDEGGWYDYWGQGTLVTVSS
VL: QSALTQPASVSGSPGQSITISCTGTSSDVGSYNPVSWYQQHPGKAPKVMIYEGSKRPSGVSNRFSGSKSGNTASLTISGLQAEDEADYYCCSYARSSTFVVFGGGTKLTVL
fold over isotype control (median fluorescence intensity) [5]: 1.28 fold over isotype

B21: antibody 576 (antibody, V domains shown)
VH: QVQLVESGGGVVQPGRSLRLSCAASGFTFSSYAMHWVRQAPGKGLEWVAVISYDGSNKYYADSVKGRFTISRDNSKNTLYLQMNSLRAEDTAVYYCAKAGGGSYYRGFDYWGQGTLVTVSS
VL: DIQLTQSPSFLSASVGDRVTITCRASQGISSYLAWYQQKPGKAPKLLIYAASTLQSGVPSRFSGSGSGTEFTLTISSLQPEDFATYYCQQLNSYPTFGPGTKVDIK
fold over isotype control (median fluorescence intensity) [5]: 6.87 fold over isotype
